B1: IKZF1 (parent)
chain: RDPFECNMCGYHSQDRYEFSSHIT

Drawing on the supplement of paper PMC10567573, this text covers protein stability index for 94 variants.
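Note: lentivirally expressed fusions sorted by FACS into six bins by GFP to DsRed ratio, PSI derived from sequencing read proportions per bin multiplied by bin number.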

In this series the parent is B1. In words: protein stability index of a GFP-peptide fusion (GPS, HEK-293T) (PSI 1-6); higher = more stable. To be noted: c terminus: a fixed tail appended.
Take RDPFETNMCGYHSQDRYEFSSHIT [C6T]: the protein stability index turned out to be 3.21.

RDPFEHNMCGYHSQDRYEFSSHIT [C6H]: the protein stability index was 2.43. Regarding RDPFEPNMCGYHSQDRYEFSSHIT [C6P], the protein stability index was found to be 2.23. On to RDPFEGNMCGYHSQDRYEFSSHIT [C6G], for which the protein stability index was 2.3. RDPFEQNMCGYHSQDRYEFSSHIT [C6Q]: the protein stability index came out at 2.38. Take RDPFENNMCGYHSQDRYEFSSHIT [C6N]: the protein stability index worked out at 2.56. For the variant RDPFEYNMCGYHSQDRYEFSSHIT [C6Y], the protein stability index came to 2.04. As for RDPFEVNMCGYHSQDRYEFSSHIT [C6V], the protein stability index was 2.5. As to RDPFEFNMCGYHSQDRYEFSSHIT [C6F], the protein stability index turned out to be 1.96.

As to RDPFESNMCGYHSQDRYEFSSHIT [C6S], the protein stability index is 2.5. RDPFEWNMCGYHSQDRYEFSSHIT [C6W]: the protein stability index came to 2.5. In the case of RDPFEINMCGYHSQDRYEFSSHIT [C6I], the protein stability index is 2.14. RDPFERNMCGYHSQDRYEFSSHIT [C6R]: the protein stability index came out at 2.06. As to RDPFEENMCGYHSQDRYEFSSHIT [C6E], the protein stability index was determined as 3.58. As to RDPFEDNMCGYHSQDRYEFSSHIT [C6D], the protein stability index was determined as 3.8. With RDPFEKNMCGYHSQDRYEFSSHIT [C6K], the protein stability index was 2.49. For RDPFELNMCGYHSQDRYEFSSHIT [C6L], the protein stability index turned out to be 1.99. The figure for RDPFEMNMCGYHSQDRYEFSSHIT [C6M] is 2.02; for RDFFECNMCGYHSQDRYEFSSHIT [P3F] it is 1.44. On to RDHFECNMCGYHSQDRYEFSSHIT [P3H], for which the protein stability index worked out at 2.59. In the case of RDAFECNMCGYHSQDRYEFSSHIT [P3A], the protein stability index is 1.64.

In the case of RDRFECNMCGYHSQDRYEFSSHIT [P3R], the protein stability index came out at 2.04. The figure for RDIFECNMCGYHSQDRYEFSSHIT [P3I] is 1.91. As for RDGFECNMCGYHSQDRYEFSSHIT [P3G], the protein stability index was determined as 1.94. RDCFECNMCGYHSQDRYEFSSHIT [P3C]: the protein stability index came out at 2.21. Consider RDLFECNMCGYHSQDRYEFSSHIT [P3L], for which the protein stability index was found to be 1.68. Take RDSFECNMCGYHSQDRYEFSSHIT [P3S]: the protein stability index came to 2.03. For the variant RDQFECNMCGYHSQDRYEFSSHIT [P3Q], the protein stability index came to 2.18. Take RDTFECNMCGYHSQDRYEFSSHIT [P3T]: the protein stability index amounted to 2.02.

On to RDEFECNMCGYHSQDRYEFSSHIT [P3E], for which the protein stability index is 2.29. The figure for RDMFECNMCGYHSQDRYEFSSHIT [P3M] is 1.76. With RDNFECNMCGYHSQDRYEFSSHIT [P3N], the protein stability index worked out at 1.94. Turning to RDWFECNMCGYHSQDRYEFSSHIT [P3W], the protein stability index stood at 1.69. Regarding RDVFECNMCGYHSQDRYEFSSHIT [P3V], the protein stability index turned out to be 1.76. For the variant RDYFECNMCGYHSQDRYEFSSHIT [P3Y], the protein stability index was determined as 1.5. The result for RDDFECNMCGYHSQDRYEFSSHIT [P3D] reads 2.99; that for RDKFECNMCGYHSQDRYEFSSHIT [P3K], 2.04. For the variant RDPFECRMCGYHSQDRYEFSSHIT [N7R], the protein stability index stood at 1.49.

As to RDPFECMMCGYHSQDRYEFSSHIT [N7M], the protein stability index came out at 1.97. Turning to RDPFECVMCGYHSQDRYEFSSHIT [N7V], the protein stability index was determined as 2.04. As to RDPFECDMCGYHSQDRYEFSSHIT [N7D], the protein stability index turned out to be 2.51. RDPFECFMCGYHSQDRYEFSSHIT [N7F]: the protein stability index amounted to 1.33. The result for RDPFECGMCGYHSQDRYEFSSHIT [N7G] reads 2.25; that for RDPFECAMCGYHSQDRYEFSSHIT [N7A], 1.75. The result for RDPFECYMCGYHSQDRYEFSSHIT [N7Y] reads 1.83; that for RDPFECKMCGYHSQDRYEFSSHIT [N7K], 2.37.

With RDPFECCMCGYHSQDRYEFSSHIT [N7C], the protein stability index is 1.89. With RDPFECTMCGYHSQDRYEFSSHIT [N7T], the protein stability index stood at 2.18. The figure for RDPFECPMCGYHSQDRYEFSSHIT [N7P] is 3.61; for RDPFECHMCGYHSQDRYEFSSHIT [N7H] it is 2.25. The figure for RDPFECWMCGYHSQDRYEFSSHIT [N7W] is 1.93; for RDPFECSMCGYHSQDRYEFSSHIT [N7S] it is 1.72; for RDPFECEMCGYHSQDRYEFSSHIT [N7E] it is 2.29. For RDPFECQMCGYHSQDRYEFSSHIT [N7Q], the protein stability index worked out at 2.01.

RDPFECLMCGYHSQDRYEFSSHIT [N7L]: the protein stability index is 1.79.

In the case of RDPFECIMCGYHSQDRYEFSSHIT [N7I], the protein stability index was found to be 2.05. As for RDPWECNMCGYHSQDRYEFSSHIT [F4W], the protein stability index came out at 2.27. Regarding RDPHECNMCGYHSQDRYEFSSHIT [F4H], the protein stability index was found to be 2.47.

As for RDPEECNMCGYHSQDRYEFSSHIT [F4E], the protein stability index was found to be 2.66. RDPYECNMCGYHSQDRYEFSSHIT [F4Y]: the protein stability index came out at 2.07. Turning to RDPKECNMCGYHSQDRYEFSSHIT [F4K], the protein stability index worked out at 2.77. The figure for RDPTECNMCGYHSQDRYEFSSHIT [F4T] is 2.97. With RDPLECNMCGYHSQDRYEFSSHIT [F4L], the protein stability index was 2.17. The figure for RDPMECNMCGYHSQDRYEFSSHIT [F4M] is 2.4; for RDPDECNMCGYHSQDRYEFSSHIT [F4D] it is 2.9; for RDPSECNMCGYHSQDRYEFSSHIT [F4S] it is 2.52.

As to RDPNECNMCGYHSQDRYEFSSHIT [F4N], the protein stability index is 3.05.

RDPIECNMCGYHSQDRYEFSSHIT [F4I]: the protein stability index is 1.89. For RDPRECNMCGYHSQDRYEFSSHIT [F4R], the protein stability index came to 3.08. RDPCECNMCGYHSQDRYEFSSHIT [F4C]: the protein stability index came out at 2.31.

RDPGECNMCGYHSQDRYEFSSHIT [F4G]: the protein stability index stood at 2.68. The result for RDPQECNMCGYHSQDRYEFSSHIT [F4Q] reads 2.91; that for RDPPECNMCGYHSQDRYEFSSHIT [F4P], 2.54. On to RDPAECNMCGYHSQDRYEFSSHIT [F4A], for which the protein stability index was found to be 2.44. RDPVECNMCGYHSQDRYEFSSHIT [F4V]: the protein stability index was 2.2. As to RDPFECNMFGYHSQDRYEFSSHIT [C9F], the protein stability index came to 2.34.

As for RDPFECNMHGYHSQDRYEFSSHIT [C9H], the protein stability index was determined as 2.63. The result for RDPFECNMIGYHSQDRYEFSSHIT [C9I] reads 3.08; that for RDPFECNMKGYHSQDRYEFSSHIT [C9K], 3.19. With RDPFECNMGGYHSQDRYEFSSHIT [C9G], the protein stability index amounted to 3.02.

With RDPFECNMQGYHSQDRYEFSSHIT [C9Q], the protein stability index was found to be 2.57. As for RDPFECNMWGYHSQDRYEFSSHIT [C9W], the protein stability index is 2.36. As for RDPFECNMEGYHSQDRYEFSSHIT [C9E], the protein stability index was 3.7. For the variant RDPFECNMLGYHSQDRYEFSSHIT [C9L], the protein stability index is 3.05. Take RDPFECNMAGYHSQDRYEFSSHIT [C9A]: the protein stability index was determined as 2.98. Consider RDPFECNMNGYHSQDRYEFSSHIT [C9N], for which the protein stability index stood at 3.28. The figure for RDPFECNMVGYHSQDRYEFSSHIT [C9V] is 3.06; for RDPFECNMTGYHSQDRYEFSSHIT [C9T] it is 3.55. Turning to RDPFECNMSGYHSQDRYEFSSHIT [C9S], the protein stability index was 3.42. In the case of RDPFECNMRGYHSQDRYEFSSHIT [C9R], the protein stability index came out at 3.24.

Regarding RDPFECNMMGYHSQDRYEFSSHIT [C9M], the protein stability index was 3.06.

RDPFECNMYGYHSQDRYEFSSHIT [C9Y]: the protein stability index was found to be 2.63. The figure for RDPFECNMPGYHSQDRYEFSSHIT [C9P] is 3.09; for RDPFECNMDGYHSQDRYEFSSHIT [C9D] it is 3.83.
